Source: publication PMC6868513
Values joined by “and” are separate entries in the source; they are usually repeats but may differ in a detail not shown here. Identical values can stand only once.

Tests used:
soluble Vγ4Vδ1 TCR = assay: flow cytometry on cells; details: anti-His mAb, read off a plot
[1] = target: Soluble endothelial protein C receptor (EPCR) (UniProt Q9UNN8); assay: SPR; details: parent: est. 1; read off a plot
[2] = target: BTNL3 IgV domain (wild type) (UniProt Q6UXE8); assay: SPR; details: parent: est. 1; read off a plot
UniProt Q6UXE8, sequence (Q6UXE8 whole entry, looked up, the tested form may be a part): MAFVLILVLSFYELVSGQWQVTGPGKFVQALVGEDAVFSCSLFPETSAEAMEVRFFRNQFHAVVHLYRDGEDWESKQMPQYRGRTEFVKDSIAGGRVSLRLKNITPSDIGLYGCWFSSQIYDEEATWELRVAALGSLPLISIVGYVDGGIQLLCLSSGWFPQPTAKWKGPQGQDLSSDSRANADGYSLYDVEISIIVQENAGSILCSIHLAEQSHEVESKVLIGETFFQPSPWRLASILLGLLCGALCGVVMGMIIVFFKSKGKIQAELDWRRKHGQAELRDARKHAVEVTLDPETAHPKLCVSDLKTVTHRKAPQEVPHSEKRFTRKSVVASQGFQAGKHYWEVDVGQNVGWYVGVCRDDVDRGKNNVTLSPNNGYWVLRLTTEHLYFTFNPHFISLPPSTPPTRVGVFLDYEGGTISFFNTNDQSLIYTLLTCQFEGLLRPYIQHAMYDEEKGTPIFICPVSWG

[3] = target: BTNL3.8 heterodimer on 293T cells (human) (UniProt Q6UXE8)
[4] = target: LES Vγ4Vδ5 TCR, soluble, wild type (human); assay: SPR; competition: wt EPCR (2500-3000 RU) immobilised on the chip; LES TCR injected at 12.5 μM with increasing BTNL3 IgV (3.5-113 μM) or BTNL8 IgV (2.2-70.5 μM); response as percent of that without competitor
[5] = target: LES Vγ4Vδ5 TCR, soluble, wild type (human); assay: ITC; iTC200; 20°C; 20mM Tris pH 8, 50 mM NaCl; TCR in the cell at 70 μM, BTNL3 at ten-fold higher concentration titrated as 20 × 2 μl injections; single independent binding site model
[6] = target: LES Vγ4Vδ5 TCR, soluble, wild type (human); assay: SPR; BIAcore3000; biotinylated wt or mutant LES TCR (1000-3500 RU) captured on streptavidin-coated CM5 chip; analyte (BTNL3 or BTNL8 IgV, EPCR) 1-200 μM; HBS-EP; 25°C; equilibrium analysis
[7] = target: LES Vγ4Vδ5 TCR, soluble, wild type (human); assay: as above; remark: listed apart in the source
[8] = soluble Vγ4Vδ1 0.1 µg/ml (read from x axis), parent: est. 9.0
[9] = soluble Vγ4Vδ1 10 µg/ml (read from x axis), parent: est. 31
[10] = soluble Vγ4Vδ1 about 2 µg/ml (read from x axis), parent: est. 16

UniProt Q9UNN8, sequence (Q9UNN8 whole entry, looked up, the tested form may be a part): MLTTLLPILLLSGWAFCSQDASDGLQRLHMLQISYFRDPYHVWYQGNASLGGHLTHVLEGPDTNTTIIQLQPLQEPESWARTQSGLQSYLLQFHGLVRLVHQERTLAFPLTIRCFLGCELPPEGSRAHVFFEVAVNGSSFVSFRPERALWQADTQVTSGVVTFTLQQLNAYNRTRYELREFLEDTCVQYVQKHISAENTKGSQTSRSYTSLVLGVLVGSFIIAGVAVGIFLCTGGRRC

How did the response (gMFI fold relative to ctrl) (soluble Vγ4Vδ1 TCR; [8]) turn out when “BTNL3.8 heterodimer on 293T cells (from UniProt Q6UXE8;Q6UX41) EDWESK>KDQPFM (in BTNL3)” was run?
The response (gMFI fold relative to ctrl) was 4.1.

And the response (gMFI fold relative to ctrl) (soluble Vγ4Vδ1 TCR; [9])?
The response (gMFI fold relative to ctrl) was 7.7.

And the response (gMFI fold relative to ctrl) (soluble Vγ4Vδ1 TCR; [10])?
Its response (gMFI fold relative to ctrl) is 5.

Which response (gMFI fold relative to ctrl) (soluble Vγ4Vδ1 TCR; [8]) does the source give for “BTNL3.8 heterodimer on 293T cells (from UniProt Q6UXE8;Q6UX41) NQFHA>GQFSS (in BTNL3)” here?
Its response (gMFI fold relative to ctrl) is 1.2.

And the response (gMFI fold relative to ctrl) (soluble Vγ4Vδ1 TCR; [9])?
The response (gMFI fold relative to ctrl) was 1.2.

And the response (gMFI fold relative to ctrl) (soluble Vγ4Vδ1 TCR; [10])?
The response (gMFI fold relative to ctrl) was 1.4.

What does the source list for “LES Vγ4Vδ5 TCR, soluble, wild type γ:DSYT>KYSR (CDR2)”?
ratio to parent [1]: 1.8; ratio to parent [2]: 0.066

For “LES Vγ4Vδ5 TCR, soluble, wild type γ:EGST>AWRY (CDR1)”, which ratio to parent [1] is on record?
Its ratio to parent is 6.6.

What about the ratio to parent [2] of the same molecule?
Its ratio to parent is 1.3.

For “LES Vγ4Vδ5 TCR, soluble, wild type γ:…>ATWEG--YKKLF (CDR3, as aligned)”, which ratio to parent [2] is on record?
Its ratio to parent is 0.72.

How did the ratio to parent [1] turn out when “LES Vγ4Vδ5 TCR, soluble, wild type γ:…>… (HV4; D>Y; G>A)” was run?
The ratio to parent was 0.53.

How did the ratio to parent [1] turn out when “LES Vγ4Vδ5 TCR, soluble, wild type γ:…>… (HV4; K>N; M>L)” was run?
The ratio to parent was 1.4.

What about the ratio to parent [2] of the same molecule?
Its ratio to parent is 0.38.

What does the source list for “LES Vγ4Vδ5 TCR, soluble, wild type δ:NSMF>YRKS (CDR1)”?
ratio to parent [1]: 0.25; ratio to parent [2]: 0.6

“LES Vγ4Vδ5 TCR, soluble, wild type δ:RGYTG>EGSKW (CDR3)” was tested. Which ratio to parent [2] did it give?
Its ratio to parent is 0.3.

Which results are given for “LES Vγ4Vδ5 TCR, soluble, wild type δ:SSIK>RYRE (CDR2)”?
ratio to parent [1]: 1; ratio to parent [2]: 0.88

Which results are given for “mo5 Vγ7Vδ2-2 TCR with the CDR2 and HV4 loops of human Vγ4, on Jurkat 76 cells”?
CD69 expression on transduced J76 cells in response to BTNL3.8-expressing target cells, over control (flow cytometry) [3]: > 3 fold; TCR downmodulation on transduced J76 cells after co-culture with 293T.L3L8 cells, against WT Vγ4 TCR transductants (flow cytometry) ([3]; scale: % of the TCR downmodulation of WT Vγ4 TCR transductants): 90

“mo5 Vγ7Vδ2-2 TCR with the HV4 loop of human Vγ4, on Jurkat 76 cells” was tested. Which CD69 expression on transduced J76 cells in response to BTNL3.8-expressing target cells, over control (flow cytometry) [3] did it give?
The CD69 expression on transduced J76 cells in response to BTNL3.8-expressing target cells, over control (flow cytometry) was > 3 fold.

B1: BTNL3 IgV domain (wild type) (domain or fragment)
chain: QWQVTGPGKFVQALVGEDAVFSCSLFPETSAEAMEVRFFRNQFHAVVHLYRDGEDWESKQMPQYRGRTEFVKDSIAGGRVSLRLKNITPSDIGLYGCWFSSQIYDEEATWELRV
Which percent of LES TCR binding to EPCR left with the competitor [4] does the source give for B1 here?
The percent of LES TCR binding to EPCR left with the competitor was < 40%.

What about the Kd [5] of the same molecule?
The Kd was 3.5 µM.

What about the dH [5] of the same molecule?
The dH was -8.1 kcal/mol.

What about the Kd [6] of the same molecule?
Its Kd is 22.1 µM and 20.9 µM.

What about the Kd [7] of the same molecule?
Its Kd is 15 to 25 µM and 20.7 µM.
